Test results taken from US8202973B2, “Method for the production of vitamin K-dependent proteins” (Novo Nordisk Health Care AG, priority 2000, dated 2012).

Tested on: CHO-K1 cells
Assay: FVII expression of CHO-K1 cells coexpressing FVII and a free FVII propeptide
Type: cell-based
Settings: pools of CHO-K1 transfectants, pLN174 plus FVII propeptide in pcDNA3.1+; control with empty vector approximately 1 pg/cell/day
Experimental: CHO K1 cells (ATCC CCI61) were transfected with equal amounts of pLN174 and pLN329 with the Fugene6 method (Boehriner-Mannheim). Transfectants were selected by the addition of methotrexate to 1 μM and G-418 to 0.45 mg/ml. The pool of transfectants were cloned by limiting dilution and FVII expression from the clones was measured.
CHO-K1 cells were transfected with pLN174 and 1) empty pcDNA3.1+ vector or 2) FVII propeptide in pcDNA3.1+, as described in Example 1. Pools of transfectants were analysed for FVII expression and cell numbers. The FVII yields pr. cell pr. 24 hours are outlined in FIG. 3.

Substance	FVII yields pr. cell pr. 24 hours [pg/cell/day]
propeptide of FVII, AVFVTQEEAHGVLHRRRR (SEQ ID NO:7); expressed free from plasmid pLN329 (listed as Homo sapiens)	~4

Biological target: T1, gamma-glutamyl carboxylase (Homo sapiens, UniProt P38435)
T1 sequence (P38435 1-758): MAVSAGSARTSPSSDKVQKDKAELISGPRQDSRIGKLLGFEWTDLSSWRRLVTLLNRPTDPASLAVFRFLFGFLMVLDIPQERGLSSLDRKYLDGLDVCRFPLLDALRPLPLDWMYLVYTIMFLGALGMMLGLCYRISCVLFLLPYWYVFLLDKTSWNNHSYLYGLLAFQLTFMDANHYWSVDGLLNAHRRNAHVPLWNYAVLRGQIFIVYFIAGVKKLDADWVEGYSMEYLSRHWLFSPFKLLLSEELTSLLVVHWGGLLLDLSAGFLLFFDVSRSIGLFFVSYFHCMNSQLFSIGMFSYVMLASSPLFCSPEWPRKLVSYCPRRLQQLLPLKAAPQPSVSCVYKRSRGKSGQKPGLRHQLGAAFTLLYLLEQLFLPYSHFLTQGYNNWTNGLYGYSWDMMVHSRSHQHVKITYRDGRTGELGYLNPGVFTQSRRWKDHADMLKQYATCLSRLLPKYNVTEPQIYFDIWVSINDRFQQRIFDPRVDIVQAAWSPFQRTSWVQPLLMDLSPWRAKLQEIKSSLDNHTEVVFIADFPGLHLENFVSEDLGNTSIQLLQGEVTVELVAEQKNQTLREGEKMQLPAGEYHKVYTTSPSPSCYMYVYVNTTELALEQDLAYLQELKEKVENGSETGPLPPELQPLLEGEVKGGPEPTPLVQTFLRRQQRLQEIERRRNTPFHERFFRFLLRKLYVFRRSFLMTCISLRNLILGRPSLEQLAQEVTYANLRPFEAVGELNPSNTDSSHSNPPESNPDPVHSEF
Assay: not given
Settings: free propeptide of vitamin K-dependent protein, positions -18 to -1; cited from earlier work

Substance	Ki [nM]
consensus propeptide sequence AVFLSREQANQVLQRRRR (SEQ ID NO:1) (listed as Homo sapiens)	0.43
propeptide of Protein S, ANFLSKQQASQVLVRKRR (SEQ ID NO:4) (listed as Homo sapiens)	12.2
propeptide of Prothrombin, HVFLAPQQARSLLQRVRR (SEQ ID NO:6) (listed as Homo sapiens)	277
propeptide of factor X, SLFIRREQANNILARVTR (SEQ ID NO:2) (listed as Homo sapiens)	2.6
propeptide of proline-rich Gla protein 1, RVFLTGEKANSILKRYPR (SEQ ID NO:5) (listed as Homo sapiens) [PRGP1]	12.8
propeptide of Protein C, SVFSSSERAHQVLRIRKR (SEQ ID NO:9) (listed as Homo sapiens)	230
propeptide of FVII, AVFVTQEEAHGVLHRRRR (SEQ ID NO:7); expressed free from plasmid pLN329 (listed as Homo sapiens)	11.1
propeptide of Matrix Gla Protein, NPFINRRNANTFISPQQR (SEQ ID NO:3)	5.8
